Test results published in article PMC11765882, “A High-Resolution Crystallographic Study of Cytochrome c6: Structural Basis for Electron Transfer in Cyanobacterial Photosynthesis” (International Journal of Molecular Sciences, 2025).

B1: Cytochrome c6 from Synechococcus elongatus sp. PCC 7942 (natural protein, Synechococcus elongatus PCC 7942)
chain: ADLAHGGQVFSANCAACHLGGRNVVNPAKTLQKADLDQYGMASIEAITTQVTNGKGAMPAFGSKLSADDIADVASYVLDQSEKGWQG
modifications: heme covalently linked to two cysteine residues via thioether bonds (CXXCH motif); iron axially coordinated by methionine and histidine
notes: cloned into pET22b with an N-terminal pelB signal peptide; Used reduced (3 mM beta-mercaptoethanol) and oxidised (40-fold molar excess of potassium ferricyanide); The printed residue numbers (Asp2, His5, Ala16) and the MALDI-TOF mass (9714.504 with heme) fit the mature protein without the native signal peptide
B2: Cytochrome c6 from Synechocystis sp. PCC 6803 (natural protein)
chain: ADLAHGKAIFAGNCAACHNGGLNAINPSKTLKMADLEANGKNSVAAIVAQITNGNGAMPGFKGRISDSDMEDVAAYVLDQAEKGW
modifications: heme covalently linked to two cysteine residues via thioether bonds (CXXCH motif); iron axially coordinated by methionine and histidine
notes: Cytochrome c6, Synechocystis sp; cloned into pET22b with an N-terminal pelB signal peptide; Crystallised only in the reduced form (3 mM beta-mercaptoethanol); The printed residue numbers and the MALDI-TOF mass (9449.297 with heme) fit the mature protein without the native signal peptide

Target: the molecule itself
Experiment: native gel or EMSA; blue native PAGE (4-13%) of the purified protein; dimer and monomer

Protein	stoichiometry N
B1	2
B2	2
